These results are taken from patent US20140154248A1.

Read-outs that look alike come from different tables or passages of the source. Bounds are passed on as bounds.

Common to all, as to assay: cell-based or functional assay
In one assay the target is transferrin receptor (UniProt P02786).
The target in assay [1] is human mesothelin (human) (UniProt Q13421).
Assay [2] has the same target. This is another data set of the same source.

UniProt Q13421, sequence (Q13421 other isoform, or with tags, fused parts or gaps): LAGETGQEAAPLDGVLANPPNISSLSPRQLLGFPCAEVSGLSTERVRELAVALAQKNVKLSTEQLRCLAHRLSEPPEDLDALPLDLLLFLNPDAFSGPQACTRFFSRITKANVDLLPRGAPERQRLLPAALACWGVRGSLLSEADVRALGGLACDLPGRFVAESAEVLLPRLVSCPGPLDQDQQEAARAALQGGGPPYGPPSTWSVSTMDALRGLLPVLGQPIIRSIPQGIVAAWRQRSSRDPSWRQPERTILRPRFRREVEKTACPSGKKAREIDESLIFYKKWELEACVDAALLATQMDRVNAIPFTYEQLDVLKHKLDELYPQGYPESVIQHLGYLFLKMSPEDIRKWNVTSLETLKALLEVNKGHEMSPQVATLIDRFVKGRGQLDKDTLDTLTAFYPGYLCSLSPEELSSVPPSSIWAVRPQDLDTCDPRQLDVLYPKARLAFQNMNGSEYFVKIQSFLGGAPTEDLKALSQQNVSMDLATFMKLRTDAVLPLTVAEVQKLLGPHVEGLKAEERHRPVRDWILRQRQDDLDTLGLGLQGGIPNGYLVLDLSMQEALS
UniProt P02786, sequence (P02786 whole entry): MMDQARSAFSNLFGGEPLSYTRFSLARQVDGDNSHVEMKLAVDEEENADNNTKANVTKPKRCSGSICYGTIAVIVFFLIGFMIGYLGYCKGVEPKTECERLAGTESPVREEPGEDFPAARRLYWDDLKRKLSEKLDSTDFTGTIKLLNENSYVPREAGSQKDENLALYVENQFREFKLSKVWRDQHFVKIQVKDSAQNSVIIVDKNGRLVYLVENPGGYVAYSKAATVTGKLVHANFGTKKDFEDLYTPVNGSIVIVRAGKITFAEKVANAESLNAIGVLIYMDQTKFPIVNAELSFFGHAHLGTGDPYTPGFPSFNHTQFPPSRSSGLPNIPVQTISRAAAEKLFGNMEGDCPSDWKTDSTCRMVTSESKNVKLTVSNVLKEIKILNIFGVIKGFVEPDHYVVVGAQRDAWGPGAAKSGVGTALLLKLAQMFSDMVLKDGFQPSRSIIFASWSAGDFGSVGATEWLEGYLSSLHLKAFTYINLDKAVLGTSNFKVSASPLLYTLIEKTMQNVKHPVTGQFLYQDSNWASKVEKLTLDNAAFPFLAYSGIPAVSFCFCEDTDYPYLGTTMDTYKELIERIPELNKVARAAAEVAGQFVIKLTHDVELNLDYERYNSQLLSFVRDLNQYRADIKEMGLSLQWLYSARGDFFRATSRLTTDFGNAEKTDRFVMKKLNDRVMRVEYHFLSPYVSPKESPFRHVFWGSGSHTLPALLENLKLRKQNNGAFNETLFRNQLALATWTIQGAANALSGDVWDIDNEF

For HB21 (anti-transferrin receptor/PE38), the reduction of viability of patient cells NCI-M-02 and NCI-M-03 (crystal violet) in the assay with transferrin receptor turned out to be 90%.
For the substance “SS1P (SS1 (dsFv)-PE38) (from UniProt P11439 278-638)”, in the assay with human mesothelin (human) [1], the EC50 (ng/ml), cytotoxicity WST-8, A431/K5 cells turned out to be 0.17 ng/mL; the EC50 (ng/ml), cytotoxicity WST-8, A1847 cells amounted to 4.59 ng/mL; the EC50 (ng/ml), cytotoxicity WST-8, HAY cells was found to be 4.79 ng/mL; the EC50 (ng/ml), cytotoxicity WST-8, KB31 cells is 0.47 ng/mL. In the assay with human mesothelin (human) [1], this substance displayed an EC50 (ng/ml), cytotoxicity WST-8, L55 cells of 5.32 ng/mL; an EC50 (ng/ml), cytotoxicity WST-8, M30 cells of 2.56 ng/mL; an EC50 (ng/ml), cytotoxicity WST-8, OVACR-8 cells of 1.4 ng/mL; a decrease in viability of patient cells NCI-M-02 and NCI-M-03 (crystal violet) of more than 65%. In the assay with human mesothelin (human) [1], this substance yielded a decrease in viability of patient cells NCI-M-16 and NCI-M-19 (crystal violet) of more than 75%. For the same substance, the decrease in viability of patient cells NCI-M-02 and NCI-M-03 (crystal violet) with human mesothelin (human) [2] was more than 60%.
